Assay results reported in patent EP2091973A2.

Assays:
Experiment in all cases: cell-based or functional assay
[1] = target: gp120 of HIV strain SF162 (clade B) on virus (HIV-1 (strain SF162))
[2] = target: gp120 of HIV strain BR004 (clade C) on virus (HIV-1 (strain BR004))
[3] = target: gp120 of HIV strain ZA009 (clade C) on virus (HIV-1 (strain 97ZA009))

MAb b12 (antibody)
IC80, HIV neutralization (PBMC hosts, p24) [1]: 14.1 µg/mL | IC80, HIV neutralization (PBMC hosts, p24) [2]: > 20 µg/mL | IC80, HIV neutralization (PBMC hosts, p24) [3]: > 20 µg/mL
